Each substance was assayed against human FcRn (soluble recombinant, 6XHis, co-expressed with beta2 microglobulin) (human) (assay: luminex binding assay, pH 6).
human FcRn (soluble recombinant, 6XHis, co-expressed with beta2 microglobulin) (human), sequence (P55899 other isoform, or with tags, fused parts or gaps): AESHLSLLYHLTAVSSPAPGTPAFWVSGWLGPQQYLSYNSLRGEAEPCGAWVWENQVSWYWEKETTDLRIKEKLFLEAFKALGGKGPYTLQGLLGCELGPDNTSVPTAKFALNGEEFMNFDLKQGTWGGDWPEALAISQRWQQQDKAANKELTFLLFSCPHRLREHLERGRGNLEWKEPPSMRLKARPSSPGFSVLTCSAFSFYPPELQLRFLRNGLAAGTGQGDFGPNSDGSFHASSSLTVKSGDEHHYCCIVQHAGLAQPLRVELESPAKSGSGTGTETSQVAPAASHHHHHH

| Substance | FcRn binding at pH 6 (fold difference vs wild type anti-CD30) (fold vs wild type) |
| --- | --- |
| anti-CD30 antibody (5F11) Fc variant E356K | 1.4 |
| anti-CD30 antibody (5F11) Fc variant G446W | 1.1 |
| anti-CD30 antibody (5F11) Fc variant S254W | 0.2 |
| anti-CD30 antibody (5F11) Fc variant F404W | 1.7 |
| anti-CD30 antibody (5F11) Fc variant S354R | 1.3 |

Continued, values first:

| FcRn binding at pH 6 (fold difference vs wild type anti-CD30) (fold vs wild type) | Substance |
| --- | --- |
| 0.6 | anti-CD30 antibody (5F11) Fc variant A378P |
| 1.6 | anti-CD30 antibody (5F11) Fc variant D376T |
| 0.6 | anti-CD30 antibody (5F11) Fc variant S426W |
| 1.1 | anti-CD30 antibody (5F11) Fc variant P247I |
| 1.4 | anti-CD30 antibody (5F11) Fc variant P396I |
| 1.3 | anti-CD30 antibody (5F11) Fc variant E345W |

From US20110123440A1
